Data: patent EP4223783A2 (dated 2023)

Target: T1, SEC-purified human FcRn-HPC4 (human, UniProt P55899 24-297; P61769 21-119)
T1 construct: Immobilized on a CM5 chip by amine coupling; also called human FcRn receptor; not shown: HPC4 tag
Test: Biacore SPR; antibody at 200, 50 and 10nM over immobilized FcRn

Binder | binding result
Anti-CD-52 2C3 A114N mutant antibody (antibody, human IgG1, kappa, additional N-linked glycan at the engineered Asn 114 (Kabat), Full-length IgG1; mutated heavy chain with the WT 2C3 light chain) heavy: not shown light: DIVMTQTPLSLSVTPGQPASISCKSSQSLLYSNGKTYLNWLLQKPGQSPQRLIYLVSKLDSGVPDRFSGSGSGTDFTLKISRVEAEDVGVYYCVQGTHLHTFGQGTRLEIKRTVAAPSVFIFPPSDEQLKSGTASVVCLLNNFYPREAKVQWKVDNALQSGNSQESVTEQDSKDSTYSLSSTLTLSKADYEKHKVYACEVTHQGLSSPVTKSFNRGEC | binds
Anti-CD-52 2C3 S442N mutant antibody (antibody, IgG1, Full-length IgG1; mutated heavy chain with the WT 2C3 light chain) heavy: not shown light: DIVMTQTPLSLSVTPGQPASISCKSSQSLLYSNGKTYLNWLLQKPGQSPQRLIYLVSKLDSGVPDRFSGSGSGTDFTLKISRVEAEDVGVYYCVQGTHLHTFGQGTRLEIKRTVAAPSVFIFPPSDEQLKSGTASVVCLLNNFYPREAKVQWKVDNALQSGNSQESVTEQDSKDSTYSLSSTLTLSKADYEKHKVYACEVTHQGLSSPVTKSFNRGEC | binds
Anti-CD-52 2C3 S298N/Y300S mutant antibody (antibody, human IgG1, kappa, Full-length IgG1; also called S298N/Y300S 2C3 variant; S298/Y300S) heavy: not shown light: DIVMTQTPLSLSVTPGQPASISCKSSQSLLYSNGKTYLNWLLQKPGQSPQRLIYLVSKLDSGVPDRFSGSGSGTDFTLKISRVEAEDVGVYYCVQGTHLHTFGQGTRLEIKRTVAAPSVFIFPPSDEQLKSGTASVVCLLNNFYPREAKVQWKVDNALQSGNSQESVTEQDSKDSTYSLSSTLTLSKADYEKHKVYACEVTHQGLSSPVTKSFNRGEC | binds

Results, then the binder that gave them:

binding result | Binder
binds | Anti-CD-52 2C3 NGT mutant antibody (antibody, human IgG1, kappa, Full-length IgG1; NGT added to the C-terminus of the heavy chain; WT 2C3 light chain; also called Add NGT to C-terminal) heavy: not shown light: DIVMTQTPLSLSVTPGQPASISCKSSQSLLYSNGKTYLNWLLQKPGQSPQRLIYLVSKLDSGVPDRFSGSGSGTDFTLKISRVEAEDVGVYYCVQGTHLHTFGQGTRLEIKRTVAAPSVFIFPPSDEQLKSGTASVVCLLNNFYPREAKVQWKVDNALQSGNSQESVTEQDSKDSTYSLSSTLTLSKADYEKHKVYACEVTHQGLSSPVTKSFNRGEC
binds | Anti-CD-52 2C3 S440N mutant antibody (antibody, IgG1, Full-length IgG1; mutated heavy chain with the WT 2C3 light chain) heavy: not shown light: DIVMTQTPLSLSVTPGQPASISCKSSQSLLYSNGKTYLNWLLQKPGQSPQRLIYLVSKLDSGVPDRFSGSGSGTDFTLKISRVEAEDVGVYYCVQGTHLHTFGQGTRLEIKRTVAAPSVFIFPPSDEQLKSGTASVVCLLNNFYPREAKVQWKVDNALQSGNSQESVTEQDSKDSTYSLSSTLTLSKADYEKHKVYACEVTHQGLSSPVTKSFNRGEC
